# Measurements from paper PMC6105217, “Modification of translation factor aIF5A from Sulfolobus solfataricus” (Extremophiles, 2018).
# Molecular target: the molecule itself
# Assay: SEC-MALS; Superdex S200 10/300 GL increase, 20 mM Tris-HCl pH 7.5, 150 mM NaCl, 25 °C; protein pre-incubated at 65 °C for 10 min, 100 µl injected at 1.5 mg/ml
protein,measurement,value
"recombinant aDHS-C-His (enzyme, Sulfolobus solfataricus, UniProt Q97ZF1 1-312, looked up, deoxyhypusine synthase, Sulfolobus solfataricus P2, ORF SSO0967, amplified by PCR from genomic DNA; source: E. coli BL21 (DE3) (pQE-70-DHS-C-His), purified (Ni-NTA); not shown: His-tag, C-terminal, kept) MINREDLLKNPVEDITLSDLKKYNDIVSVFDKIYGFSSEGIVNGSKILKEMIKNADLRFLSFTANLVSTGLRGLFADLIKKGYFNIVVTTGGTIDHDLARSFGGVYYKGSFDIDDTMLKDLEIHRLGNVLVPFESYGKVIEDVVRKFLPEITKDRKEISAYELLWEFGKRITDSNSILRAAYDKNVPIIVPGILDGSFGTNLFIQSQFLNFRINLFEDMRLIKDLIFSSKKSGALIIGGGISKHHTIWWNQFKDGLNYAIYITTAQEYDGSLSGAKPREAISWNKIRPDAKHVTIYGDATIIVPILAASLLS",stoichiometry N,4
